We go through one substance from patent publication US20210205445A1.

The target in the assay is Dectin-2 on murine bone marrow-derived dendritic cells (mouse) (UniProt Q9JKF4). Briefly: cell-based or functional assay.
Sequence of UniProt Q9JKF4 (Q9JKF4 whole entry): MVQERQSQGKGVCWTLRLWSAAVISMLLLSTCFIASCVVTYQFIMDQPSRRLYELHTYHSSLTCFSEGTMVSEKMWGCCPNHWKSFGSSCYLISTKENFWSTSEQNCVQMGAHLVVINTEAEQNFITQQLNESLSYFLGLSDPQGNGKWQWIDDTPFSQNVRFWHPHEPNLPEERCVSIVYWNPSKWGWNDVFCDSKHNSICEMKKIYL

“recombinant Bl-Eng2 (Blastomyces dermatitidis Eng2 expressed in Pichia pastoris, C-terminal Myc-6xHis tag) (ligand)”: the Ligand induced IL-6 production by murine BMDC, against Furfurman, Man-Lam and MP98 is more than 100 fold.
